pKd: −log10 of the molar value.
Columns and labels:
[1] = biological target: Protein H (Streptococcus pyogenes (strain AP1)); experiment: SEC; Superose 6 10/30; 5 nmol Protein H alone at 8°C and 28°C; column calibrated with high molecular weight markers; monomer to dimer
[2] = biological target: C4b-binding protein (C4BP), human, purified from plasma (human) (UniProt P04003); experiment: SEC; Superose 6 10/30, PBS, ambient temperature; 0.25 nmol C4BP with varying amounts of Protein H, pre-incubated 30 min at room temperature; area of the free Protein H peak fitted
[3] = biological target: Protein H (Streptococcus pyogenes (strain AP1)); experiment: MST; Monolith NT.115; Alexa-488-labelled Protein H constant at 0.5 nM, C4BP at 16 concentrations; 50 mM Tris-HCl pH 7.4, 150 mM NaCl, 10 mM MgCl2, 0.05% Tween-20; 37°C
Target sequence in this assay (P50470 42-345 limits assumed): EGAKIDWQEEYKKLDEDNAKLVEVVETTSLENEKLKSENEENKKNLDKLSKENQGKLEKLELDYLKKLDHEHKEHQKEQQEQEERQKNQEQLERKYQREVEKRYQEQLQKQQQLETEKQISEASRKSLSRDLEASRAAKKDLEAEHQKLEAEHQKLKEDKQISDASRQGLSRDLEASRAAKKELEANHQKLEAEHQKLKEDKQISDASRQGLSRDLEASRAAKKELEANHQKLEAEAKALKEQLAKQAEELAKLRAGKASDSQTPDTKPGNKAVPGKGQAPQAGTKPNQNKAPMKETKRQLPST

[4] = biological target: Protein H on the surface of Streptococcus pyogenes AP1 (Streptococcus pyogenes (endogenous in strain AP1))

C4b-binding protein (C4BP), human, purified from plasma, sequence (P04003 49-597): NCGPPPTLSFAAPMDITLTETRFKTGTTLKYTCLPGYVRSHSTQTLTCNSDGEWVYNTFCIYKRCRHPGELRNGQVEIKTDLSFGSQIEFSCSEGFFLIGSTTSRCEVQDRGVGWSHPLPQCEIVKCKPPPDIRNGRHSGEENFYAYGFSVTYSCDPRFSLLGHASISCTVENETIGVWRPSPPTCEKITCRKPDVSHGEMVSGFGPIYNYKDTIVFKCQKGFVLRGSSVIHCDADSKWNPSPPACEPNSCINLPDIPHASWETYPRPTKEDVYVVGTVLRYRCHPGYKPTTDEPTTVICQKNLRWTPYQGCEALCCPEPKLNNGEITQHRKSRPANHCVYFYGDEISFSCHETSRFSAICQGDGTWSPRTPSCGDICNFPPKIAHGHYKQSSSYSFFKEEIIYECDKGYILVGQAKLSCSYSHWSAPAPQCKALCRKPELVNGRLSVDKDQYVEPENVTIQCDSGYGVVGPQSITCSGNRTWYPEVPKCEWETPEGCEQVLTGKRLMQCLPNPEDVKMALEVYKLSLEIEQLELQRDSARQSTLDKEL
C4b-binding protein (C4BP), human, purified from plasma, sequence (P20851 18-252): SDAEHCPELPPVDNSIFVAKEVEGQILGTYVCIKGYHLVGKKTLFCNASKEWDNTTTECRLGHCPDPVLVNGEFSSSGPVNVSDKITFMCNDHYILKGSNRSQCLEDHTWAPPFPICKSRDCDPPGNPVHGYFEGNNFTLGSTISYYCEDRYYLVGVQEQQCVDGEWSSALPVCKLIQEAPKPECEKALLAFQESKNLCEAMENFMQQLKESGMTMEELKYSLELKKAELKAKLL
C4b-binding protein (C4BP), human, purified from plasma (human), sequence (P04003 49-597, chain 1 of 2): as the sequence (P04003 49-597) above
C4b-binding protein (C4BP), human, purified from plasma (human), sequence (P20851 18-252, chain 2 of 2, further chain): as the sequence (P20851 18-252) above

Protein H (natural protein)
stoichiometry N [1]: 2 | stoichiometry N (Protein H monomers per C4BP) [2]: 26

C4b-binding protein (C4BP), human, purified from plasma (from UniProt P04003 49-597; P20851 18-252) (complex)
pKd [3]: 6.74

Protein H on the surface of Streptococcus pyogenes AP1 (natural protein)
aggregation of S. pyogenes AP1 grown overnight at 35°C, 37°C or 41°C (OD600 before against after vortexing); at 41°C all bacteria remained dispersed [4]: 70%

— publication PMC6557989
